71 substances from patent US10738094B2, “Peptides and combination of peptides for use in immunotherapy against ovarian cancer and other cancers” (immatics biotechnologies GmbH, priority 2015, dated 2020) can be followed below.

This assay deals with HLA-A*02:01 (Homo sapiens, UniProt P04439, D140Y/D185E/D98H/E176V/E277Q/G131W/G231S/I119V/I121R/I166T/I218V/L300P/L318F/N151K/N90K/P208A/P217A/Q86G/Q94H/R138H/R169H/T345S). Description: MHC binding assay (UV-ligand exchange, beta2m ELISA). Conditions: binding to HLA-A*02:01 ranged by peptide exchange yield (UV-ligand exchange, β2m ELISA). The method, boiled down: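 Stabilised complexes were quantified via their β2m light chain: 100-fold-diluted monomers bound to streptavidin plates, then HRP anti-β2m at 2 ug/ml for 1 h at 37° C., TMB read at 450 nm. The value is the yield of UV-induced exchange of a photocleavable peptide for the candidate.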
A general note: An ELISA detects its analyte on a solid surface through an enzyme-linked reagent.
As to “14 (AAYGGLNEKSFV; listed as Homo sapiens) [compound 14]”, the Peptide exchange entry is on record as ““+++” (≥50 = +++)”.

With “240 (ILLEQAFYL; listed as Homo sapiens) [compound 240]”, the Peptide exchange entry is recorded as ““+++” (≥50 = +++)”.

As to “97 (SLINGSFLV; listed as Homo sapiens) [compound 97]”, the Peptide exchange entry is recorded as ““+++” (≥50 = +++)”.

As for “437 (SMAPGLVIQAV; listed as Homo sapiens) [compound 437]”, the Peptide exchange result is ““+++” (≥50 = +++)”.

Consider “372 (TMLLNIPLV; listed as Homo sapiens) [compound 372]”, for which the Peptide exchange result is ““++” (≥20% = ++)”.

On to “427 (ALLPLSPYL; listed as Homo sapiens) [compound 427]”, for which the Peptide exchange entry is listed as ““+++” (≥50 = +++)”.

On to “258 (ELAERVPAI; listed as Homo sapiens) [compound 258]”, for which the Peptide exchange entry is ““++” (≥20% = ++)”.

Regarding “346 (LLDSKVPSV; listed as Homo sapiens) [compound 346]”, the Peptide exchange entry was ““+++” (≥50 = +++)”.

For “121 (GVVDPRAISVL; listed as Homo sapiens) [compound 121]”, the Peptide exchange entry is listed as ““++” (≥20% = ++)”.

Take “149 (NLLELFVQL; listed as Homo sapiens) [compound 149]”: the Peptide exchange result is listed as ““+++” (≥50 = +++)”.

Turning to “469 (YLASDEITTV; listed as Homo sapiens) [compound 469]”, the Peptide exchange entry is ““+++” (≥50 = +++)”.

On to “140 (YMDAPKAAL; listed as Homo sapiens) [compound 140]”, for which the Peptide exchange entry is recorded as ““++” (≥20% = ++)”.

For “77 (ILVEADGAWVV; listed as Homo sapiens) [compound 77]”, the Peptide exchange result is ““++++” (≥75% = ++++)”.

With “373 (SLLEDKGLAEV; listed as Homo sapiens) [compound 373]”, the Peptide exchange result is ““++” (≥20% = ++)”.

As to “555 (YVLEGLKSV; listed as Homo sapiens) [compound 555]”, the Peptide exchange entry was ““+++” (≥50 = +++)”.

Turning to “263 (LLVSNLDFGV; listed as Homo sapiens) [compound 263]”, the Peptide exchange result is given as ““+++” (≥50 = +++)”.

Turning to “278 (QLLDVVLTI; listed as Homo sapiens) [compound 278]”, the Peptide exchange entry is given as ““++” (≥20% = ++)”.

With “347 (SLFKHDPAAWEA; listed as Homo sapiens) [compound 347]”, the Peptide exchange entry is given as ““++++” (≥75% = ++++)”.

In the case of “4 (GIMEHITKI; listed as Homo sapiens) [compound 4]”, the Peptide exchange entry is recorded as ““++++” (≥75% = ++++)”.

In the case of “127 (KIGDEPPKV; listed as Homo sapiens) [compound 127]”, the Peptide exchange result is ““++” (≥20% = ++)”.

With “557 (KLYDDMIRL; listed as Homo sapiens) [compound 557]”, the Peptide exchange result is ““+++” (≥50 = +++)”.

With “431 (SLVNVVPKL; listed as Homo sapiens) [compound 431]”, the Peptide exchange entry is on record as ““++” (≥20% = ++)”.

Turning to “15 (VLLTFKIFL; listed as Homo sapiens) [compound 15]”, the Peptide exchange entry is ““++” (≥20% = ++)”.

On to “587 (VMNDRLYAI; listed as Homo sapiens) [compound 587]”, for which the Peptide exchange result is on record as ““+++” (≥50 = +++)”.

Consider “245 (SMIDDLLGV; listed as Homo sapiens) [compound 245]”, for which the Peptide exchange entry is recorded as ““+++” (≥50 = +++)”.

Consider “287 (FLNEFFLNV; listed as Homo sapiens) [compound 287]”, for which the Peptide exchange result is ““+++” (≥50 = +++)”.

As for “339 (GLWEIENNPTVKA; listed as Homo sapiens) [compound 339]”, the Peptide exchange entry is given as ““++++” (≥75% = ++++)”.

For the substance “473 (AMATESILHFA; listed as Homo sapiens) [compound 473]”, the Peptide exchange result is recorded as ““+++” (≥50 = +++)”.

“365 (YVIDQGETDVYV; listed as Homo sapiens) [compound 365]”: the Peptide exchange result is given as ““+++” (≥50 = +++)”.

Regarding “516 (AVGPASILKEV; listed as Homo sapiens) [compound 516]”, the Peptide exchange entry is listed as ““++” (≥20% = ++)”.

On to “163 (ALDEMGDLLQL; listed as Homo sapiens) [compound 163]”, for which the Peptide exchange entry is ““+++” (≥50 = +++)”.

For “583 (ILANDGVLLAA; listed as Homo sapiens) [compound 583]”, the Peptide exchange result is ““+++” (≥50 = +++)”.

Regarding “500 (SLMEDQVLQL; listed as Homo sapiens) [compound 500]”, the Peptide exchange entry is reported as ““+++” (≥50 = +++)”.

With “391 (YVYPQRLNFV; listed as Homo sapiens) [compound 391]”, the Peptide exchange result is reported as ““+++” (≥50 = +++)”.

On to “94 (YLIDIKTIAI; listed as Homo sapiens) [compound 94]”, for which the Peptide exchange result was ““++” (≥20% = ++)”.

As for “95 (SVIPQIQKV; listed as Homo sapiens) [compound 95]”, the Peptide exchange result is given as ““+++” (≥50 = +++)”.

As to “352 (SLLELLHIYV; listed as Homo sapiens) [compound 352]”, the Peptide exchange entry is ““+++” (≥50 = +++)”.

As for “178 (ALTEIAFVV; listed as Homo sapiens) [compound 178]”, the Peptide exchange entry is given as ““++++” (≥75% = ++++)”.

Regarding “354 (LILEGVDTV; listed as Homo sapiens) [compound 354]”, the Peptide exchange result is ““++” (≥20% = ++)”.

Regarding “34 (ILVEADSLWVV; listed as Homo sapiens) [compound 34]”, the Peptide exchange result is ““+++” (≥50 = +++)”.

With “205 (SLYPGTETMGL; listed as Homo sapiens) [compound 205]”, the Peptide exchange entry is listed as ““+++” (≥50 = +++)”.

Regarding “412 (YLDDLNEGVYI; listed as Homo sapiens) [compound 412]”, the Peptide exchange entry was ““++” (≥20% = ++)”.

Turning to “88 (FLLVGDLMAV; listed as Homo sapiens) [compound 88]”, the Peptide exchange result is given as ““+++” (≥50 = +++)”.

Consider “117 (ILPDGEDFLAV; listed as Homo sapiens) [compound 117]”, for which the Peptide exchange result is given as ““+++” (≥50 = +++)”.

“139 (SVMEVNSGIYRV; listed as Homo sapiens) [compound 139]”: the Peptide exchange result is ““+++” (≥50 = +++)”.

On to “22 (IMEENPGIFAV; listed as Homo sapiens) [compound 22]”, for which the Peptide exchange entry is reported as ““+++” (≥50 = +++)”.

With “98 (LIIDQADIYL; listed as Homo sapiens) [compound 98]”, the Peptide exchange result was ““+++” (≥50 = +++)”.

On to “309 (GLFDGVPTTA; listed as Homo sapiens) [compound 309]”, for which the Peptide exchange result is recorded as ““+++” (≥50 = +++)”.

Consider “59 (IMEDIILTL; listed as Homo sapiens) [compound 59]”, for which the Peptide exchange entry is reported as ““+++” (≥50 = +++)”.

In the case of “111 (YVWGFYPAEV; listed as Homo sapiens) [compound 111]”, the Peptide exchange result is on record as ““+++” (≥50 = +++)”.

As to “381 (FIDEAYVEV; listed as Homo sapiens) [compound 381]”, the Peptide exchange entry was ““++” (≥20% = ++)”.

In the case of “128 (YLFDDPLSAV; listed as Homo sapiens) [compound 128]”, the Peptide exchange result is reported as ““++” (≥20% = ++)”.

Turning to “383 (ALLELENSVTL; listed as Homo sapiens) [compound 383]”, the Peptide exchange entry is given as ““+++” (≥50 = +++)”.

In the case of “351 (SLIPNLRNV; listed as Homo sapiens) [compound 351]”, the Peptide exchange result is reported as ““+++” (≥50 = +++)”.

“361 (ALYELEGTTV; listed as Homo sapiens) [compound 361]”: the Peptide exchange result is given as ““+++” (≥50 = +++)”.

As for “401 (ILLDDTGLAYI; listed as Homo sapiens) [compound 401]”, the Peptide exchange entry is ““+++” (≥50 = +++)”.

“444 (GLLRDEALAEV; listed as Homo sapiens) [compound 444]”: the Peptide exchange result is listed as ““+++” (≥50 = +++)”.

Regarding “224 (TLIDAQWVL; listed as Homo sapiens) [compound 224]”, the Peptide exchange entry is ““+++” (≥50 = +++)”.

Take “254 (TLLAFIMEL; listed as Homo sapiens) [compound 254]”: the Peptide exchange result was ““+++” (≥50 = +++)”.

As for “52 (FLLAHGLGFLL; listed as Homo sapiens) [compound 52]”, the Peptide exchange result is recorded as ““++++” (≥75% = ++++)”.

With “311 (RLYTGMHTV; listed as Homo sapiens) [compound 311]”, the Peptide exchange result is listed as ““+++” (≥50 = +++)”.

Consider “514 (ILVDWLVQV; listed as Homo sapiens) [compound 514]”, for which the Peptide exchange entry was ““+++” (≥50 = +++)”.

For “617 (ALMYESEKVGV; listed as Homo sapiens) [compound 617]”, the Peptide exchange entry is recorded as ““+++” (≥50 = +++)”.

For the substance “72 (SLLELDGINL; listed as Homo sapiens) [compound 72]”, the Peptide exchange result is listed as ““+++” (≥50 = +++)”.

For the substance “182 (MLLEAPGIFL; listed as Homo sapiens) [compound 182]”, the Peptide exchange entry was ““+++” (≥50 = +++)”.

Consider “123 (NLWDLTDASVV; listed as Homo sapiens) [compound 123]”, for which the Peptide exchange entry was ““+++” (≥50 = +++)”.

In the case of “78 (SLFSSLEPQIQPV; listed as Homo sapiens) [compound 78]”, the Peptide exchange result is on record as ““+++” (≥50 = +++)”.

On to “7 (SLVGLLLYL; listed as Homo sapiens) [compound 7]”, for which the Peptide exchange entry is reported as ““++++” (≥75% = ++++)”.

On to “544 (LLWDVPAPSL; listed as Homo sapiens) [compound 544]”, for which the Peptide exchange entry is recorded as ““+++” (≥50 = +++)”.

Regarding “9 (GAAKDLPGV; listed as Homo sapiens) [compound 9]”, the Peptide exchange entry was ““++” (≥20% = ++)”.

For “398 (KLLEEDGTIITL; listed as Homo sapiens) [compound 398]”, the Peptide exchange entry is recorded as ““++” (≥20% = ++)”.
